# Experimental data taken from US20210341448A1, “SCREENING METHOD FOR THERAPEUTIC DRUG OR PROPHYLACTIC DRUG FOR TAUOPATHY AND DIAGNOSTIC METHOD FOR TAUOPATHY” (National Center for Geriatrics and Gerontology, priority 2018, published 2021).
# Legend:
# NMDAR = molecular target: T1, NMDAR (Mus musculus, UniProt P35436+P35438+Q01097); assay: Coimmunoprecipitation of tau and NMDAR with anti-tau antibody (TauC); format: binding; conditions: tau knockout brain slice exposed to tau oligomer sample, IP: TauC, western blot anti-NR1
# T1 construct: from tissue
# Protocol: Whether or not the tau oligomers directly bind and interact with NMDARs was tested by the coimmunoprecipitation. The tau-knockout-brain slice specimens exposed to the tau oligomer sample prepared by the procedure of the above (2-1) and (2-2) was homogenized in 50-fold volume of the lysis buffer (4 mM of HEPES, 2 mM of EGTA, 0.32 M of sucrose, 1% Protease Inhibitor Cocktail, 1% Phosphatase Inhibitor Cocktail (Nacalai Tesque Inc., #07575-51)) and was centrifuged at 4° C., 12,000×g for 15 minutes to thereby collect pellets. The obtained pellets were dissolved in a 0.1% Triton X-100/TBS solution (25 mM of Tris-HCl, 150 mM of NaCl, 1 mM of EDTA, 1% NP-40, 5% glycerol, 0.1% Triton X-100, pH 7.4) and the resultant was used as a membrane protein solution. Coimmunoprecipitation on the obtained membrane protein solution was carried out by using an anti-tau antibody (TauC) (Dako, #A0024) (1:2000 dilution) and Pierce Direct Magnetic IP/Co-IP Kit (Thermo Fisher Scientific, #88828), in accordance with the recommended protocol by the kit. The collected coimmunoprecipitation samples were electrophoresed and then NMDAR was detected by the western blot. The antibody used was an anti-NR1 subunit antibody (Merck Millipore, #MAN363) (1:2000 dilution).
# NT2-N cells = assay: Adhesion activity of tau oligomers to NT2-N cell surface (fluorescence microscopy); format: cell-based, human; conditions: on ice 30 minutes, no membrane permeabilization
# Protocol: Cal-520 AM was loaded to the NT2-N cells prepared in the above (4-1) by the procedure of the above (4-2), exposed to the tau oligomer sample (10 μl/ml) prepared in the above (1-3) and incubated on ice for 30 minutes. Subsequently, the cells were washed 3 times with DPBS(−) (137 mM of NaCl, 2.68 mM of KCl, 1.47 mM of KH2PO4, 8.06 mM of Na2HPO4) and fixed with 4% paraformaldehyde at room temperature for 15 minutes. After thorough washing with DPBS(−) (10 minutes×3 times), blocking was done with 1% BSA and 3% donkey serum/DPBS for 30 minutes. Then, the anti-phosphorylated tau antibody (anti-pTau (paired pS409, pS412, pS413), AnaSpec, #AS-55416) (1:1500 dilution) as the primary antibody was reacted at room temperature for 1 hour, and Alexa594-labelled anti-mouse IgG (Jackson Immuno Research, #711-585-152) (1:1500 dilution) as a secondary antibody was reacted at room temperature for 30 minutes, to thereby carry out immunostaining. The stained cells were observed using a fluorescence microscope (BZ-X710, Keyence Corporation).
# The HT-tau oligomer sample prepared in the above (1-4), instead of the tau oligomer sample prepared in the above (1-3), was exposed to the NT2-N cells by the same procedure as in the above (5-1). After thorough washing, fluorescence microscopic observation was carried out.
# T1 sequence (P35436 23-1464, other chains not shown): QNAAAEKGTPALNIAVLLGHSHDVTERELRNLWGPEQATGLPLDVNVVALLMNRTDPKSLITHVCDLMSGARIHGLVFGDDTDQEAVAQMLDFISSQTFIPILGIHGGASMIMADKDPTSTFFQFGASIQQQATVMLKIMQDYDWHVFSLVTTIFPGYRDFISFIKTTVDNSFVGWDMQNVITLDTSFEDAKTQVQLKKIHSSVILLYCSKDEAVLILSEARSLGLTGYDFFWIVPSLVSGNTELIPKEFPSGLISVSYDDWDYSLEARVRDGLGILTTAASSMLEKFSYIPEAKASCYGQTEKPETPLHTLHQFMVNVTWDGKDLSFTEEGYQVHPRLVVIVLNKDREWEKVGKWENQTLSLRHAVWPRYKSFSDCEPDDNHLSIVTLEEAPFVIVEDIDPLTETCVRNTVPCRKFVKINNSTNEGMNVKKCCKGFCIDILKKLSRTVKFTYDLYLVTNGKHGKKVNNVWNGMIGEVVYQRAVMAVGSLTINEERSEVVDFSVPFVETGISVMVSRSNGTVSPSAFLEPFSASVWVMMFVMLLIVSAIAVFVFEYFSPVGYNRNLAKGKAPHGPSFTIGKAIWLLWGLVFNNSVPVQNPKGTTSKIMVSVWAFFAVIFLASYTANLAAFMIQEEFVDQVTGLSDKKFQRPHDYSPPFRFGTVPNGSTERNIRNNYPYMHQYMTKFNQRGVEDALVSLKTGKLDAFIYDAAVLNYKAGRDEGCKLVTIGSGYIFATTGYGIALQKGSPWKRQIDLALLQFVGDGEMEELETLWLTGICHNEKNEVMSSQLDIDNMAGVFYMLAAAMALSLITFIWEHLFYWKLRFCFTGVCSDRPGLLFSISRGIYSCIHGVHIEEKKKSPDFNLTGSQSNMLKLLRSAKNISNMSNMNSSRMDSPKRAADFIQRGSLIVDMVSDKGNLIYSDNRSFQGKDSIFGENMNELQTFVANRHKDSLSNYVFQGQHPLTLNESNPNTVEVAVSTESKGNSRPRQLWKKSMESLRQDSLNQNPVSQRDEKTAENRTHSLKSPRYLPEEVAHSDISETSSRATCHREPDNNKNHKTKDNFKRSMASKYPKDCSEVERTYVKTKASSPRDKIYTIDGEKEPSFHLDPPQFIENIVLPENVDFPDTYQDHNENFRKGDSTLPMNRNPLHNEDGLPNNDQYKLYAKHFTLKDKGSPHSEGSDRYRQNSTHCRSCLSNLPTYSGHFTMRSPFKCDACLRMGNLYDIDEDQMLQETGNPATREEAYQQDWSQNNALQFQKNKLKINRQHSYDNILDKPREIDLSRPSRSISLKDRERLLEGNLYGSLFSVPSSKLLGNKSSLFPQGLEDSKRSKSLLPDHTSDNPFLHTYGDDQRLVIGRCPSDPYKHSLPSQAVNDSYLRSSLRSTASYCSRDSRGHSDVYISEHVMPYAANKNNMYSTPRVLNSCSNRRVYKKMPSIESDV
# T1 sequence (Q01097 27-1482, other chains not shown): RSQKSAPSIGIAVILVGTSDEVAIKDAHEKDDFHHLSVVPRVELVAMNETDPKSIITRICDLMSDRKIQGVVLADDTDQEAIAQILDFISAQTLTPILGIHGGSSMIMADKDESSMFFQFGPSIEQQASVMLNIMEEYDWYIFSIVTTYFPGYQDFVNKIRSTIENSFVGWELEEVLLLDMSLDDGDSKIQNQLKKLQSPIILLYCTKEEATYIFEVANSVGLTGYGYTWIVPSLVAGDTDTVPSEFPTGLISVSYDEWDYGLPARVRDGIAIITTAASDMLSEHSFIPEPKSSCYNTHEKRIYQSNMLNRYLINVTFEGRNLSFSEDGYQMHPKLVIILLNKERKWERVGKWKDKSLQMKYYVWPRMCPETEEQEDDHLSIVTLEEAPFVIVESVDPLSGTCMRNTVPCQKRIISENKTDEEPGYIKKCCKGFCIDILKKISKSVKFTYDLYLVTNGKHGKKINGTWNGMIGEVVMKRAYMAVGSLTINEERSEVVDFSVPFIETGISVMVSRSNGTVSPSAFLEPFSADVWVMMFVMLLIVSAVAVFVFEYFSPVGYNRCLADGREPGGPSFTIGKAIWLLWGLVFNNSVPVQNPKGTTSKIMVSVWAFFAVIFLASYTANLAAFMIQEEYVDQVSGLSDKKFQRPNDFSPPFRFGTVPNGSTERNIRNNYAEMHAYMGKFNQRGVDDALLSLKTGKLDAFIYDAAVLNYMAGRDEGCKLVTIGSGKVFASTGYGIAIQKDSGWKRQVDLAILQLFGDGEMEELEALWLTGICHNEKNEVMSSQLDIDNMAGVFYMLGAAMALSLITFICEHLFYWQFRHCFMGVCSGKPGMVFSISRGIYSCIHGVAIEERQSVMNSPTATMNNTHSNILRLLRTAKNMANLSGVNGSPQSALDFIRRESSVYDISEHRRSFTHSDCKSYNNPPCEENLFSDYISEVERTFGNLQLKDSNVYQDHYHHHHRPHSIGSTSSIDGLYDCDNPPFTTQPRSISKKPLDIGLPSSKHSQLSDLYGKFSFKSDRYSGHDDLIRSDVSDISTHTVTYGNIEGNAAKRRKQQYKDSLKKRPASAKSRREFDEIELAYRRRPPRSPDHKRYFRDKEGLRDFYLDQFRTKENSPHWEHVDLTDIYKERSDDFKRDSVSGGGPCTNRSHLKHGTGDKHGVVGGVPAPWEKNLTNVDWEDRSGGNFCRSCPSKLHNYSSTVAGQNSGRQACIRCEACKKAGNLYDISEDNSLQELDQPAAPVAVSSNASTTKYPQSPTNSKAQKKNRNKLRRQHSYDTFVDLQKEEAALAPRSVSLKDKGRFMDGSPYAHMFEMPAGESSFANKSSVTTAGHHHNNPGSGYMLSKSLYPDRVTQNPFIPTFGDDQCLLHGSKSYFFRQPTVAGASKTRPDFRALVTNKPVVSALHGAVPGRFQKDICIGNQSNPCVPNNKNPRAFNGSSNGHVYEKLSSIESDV
substance,measurement,setting,value
"tau oligomer: polymer of human tau 2N4R monomers, polymerized with mouse brain extract and ATP, collected as pellets",coimmunoprecipitation of NR1 subunit with tau,NMDAR,clear band of the NR1 subunits was detected
same,adhesion to the cell surface,NT2-N cells,adhered in a patchy pattern
